Experimental data taken from paper PMC4030946, “Enantiocomplementary Yarrowia lipolytica Oxidoreductases: Alcohol Dehydrogenase 2 and Short Chain Dehydrogenase/Reductase” (Biomolecules, 2013).

What was measured:
[1] = biological target: T1, YlSDR (Yarrowia lipolytica, UniProt Q6CEE9); assay: chiral GC of product after acetylation; format: biochemical; conditions: reduction to (R)-2-octanol; NADPH 11 mM; citrate 50 mM, pH 5.0, 28 °C; Tween 20
T1 construct: gene YALI0B16192g; full length, N-terminal His-tag (vector pK470), E. coli BL21 (DE3) Gold, purified
T1 sequence (Q6CEE9 1-278): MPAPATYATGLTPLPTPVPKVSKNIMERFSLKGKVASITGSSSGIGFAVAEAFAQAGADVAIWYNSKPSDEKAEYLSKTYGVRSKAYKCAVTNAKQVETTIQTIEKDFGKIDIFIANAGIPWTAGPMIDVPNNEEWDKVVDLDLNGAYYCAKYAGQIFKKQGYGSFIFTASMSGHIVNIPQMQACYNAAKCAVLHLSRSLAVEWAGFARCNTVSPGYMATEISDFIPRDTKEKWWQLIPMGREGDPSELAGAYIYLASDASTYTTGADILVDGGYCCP

[2] = substrate: NC(=O)c1ccc[n+]([C@@H]2O[C@H](COP(=O)(O)OP(=O)(O)OC[C@H]3O[C@@H](n4cnc5c(N)ncnc54)[C@H](O)[C@@H]3O)[C@@H](O)[C@H]2O)c1; assay: purified protein; format: biochemical, Yarrowia lipolytica; conditions: oxidation of 10 mM (S)-2-octanol, potassium phosphate 50 mM, 40 mM KCl, pH 8.5, 28 °C, varied: cofactor
[3] = substrate: CCCCCCC(C)=O; assay: purified protein; format: biochemical, Yarrowia lipolytica; conditions: reduction, NADH co-substrate, potassium phosphate 50 mM, 40 mM KCl, pH 7.0, 28 °C, Tween 20
[4] = substrate: CCCCCC[C@H](C)O; assay: purified protein; format: biochemical, Yarrowia lipolytica; conditions: oxidation, NAD+ co-substrate, potassium phosphate 50 mM, 40 mM KCl, pH 8.5, 28 °C, Tween 20

With CCCCCCC(C)=O [2-octanone] the “chiral GC of product after acetylation” value [1] was “(R)-2-octanol was prepared under the following conditions: purified YlSDR in citrate buffer”.

B1: YlADH2 (Yarrowia lipolytica CLIB122) (protein)
chain: MSAPVIPKTQKGVIFETSGGPLMYKDIPVPVPADDEILVNVKFSGVCHTDLHAWKGDWPLDTKLPLVGGHEGAGVVVAKGKNVDTFEIGDYAGIKWINKACYTCEFCQVAAEPNCPNATMSGYTHDGSFQQYATANAVQAAHIPKNCDLAEIAPILCAGITVYKALKTAAILAGQWVAVTGAGGGLGTLAVQYAKAMGYRVLAIDTGADKEKMCKDLGAEVFIDFAKTKDLVKDVQEATKGGPHAVINVSVSEFAVNQSIEYVRTLGTVVLVGLPAGAVCKSPIFQQVARSIQIKGSYVGNRADSQEAIEFFSRGLVKSPIIIIGLSELEKVYKLMEEGKIAGRYVLDTSK
B1 showed a Km [2] of 17.8 ± 1.26 mM, a kcat [2] of 3.43 ± 0.05 s⁻¹ and a kcat/Km [2] of 190 ± 70 M⁻¹ s⁻¹. For the same molecule, the Km [3] was 5.38 ± 0.76 mM, the kcat [3] was 0.56 ± 0.04 s⁻¹ and the kcat/Km [3] was 100 ± 160 M⁻¹ s⁻¹. For the same molecule, the Km [4] was 1.42 ± 0.03 mM, the kcat [4] was 1.05 ± 0.52 s⁻¹ and the kcat/Km [4] was 740 ± 500 M⁻¹ s⁻¹.
